Reference: US20250368745A1 (published 2025)
Changes are numbered by the printed parent chain. Names may count otherwise.

T1: human IL-18BP (human, UniProt O95998 31-194)
T1 construct: UniProt printed as 095998; also called hIL-18BP
T1 sequence: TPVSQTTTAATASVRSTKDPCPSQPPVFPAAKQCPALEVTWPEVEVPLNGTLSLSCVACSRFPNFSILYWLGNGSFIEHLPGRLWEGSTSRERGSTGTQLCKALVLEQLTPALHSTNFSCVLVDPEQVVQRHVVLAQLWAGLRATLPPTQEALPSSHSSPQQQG

B1: SA301a LC-Y91M (antibody, name in Kabat numbering, V domains shown)
VH: QVQLQESGPGLVKPSQTLSLTCTVSGYSITSDYNSHWIRQPPGKGLEWIGYIHYSGSTNYNPSLKSRVTISRDTSKNQFSLKLSSVTAADTAVYYCARNYGSIYVNYFDYWGQGTLVTVSS
VL: EIVLTQSPATLSLSPGERATLSCSASSSVSYMYWYQQKPGQAPRPLIYRTSNLASGIPARFSGSGSGTDFTLTISSLEPEDFAVYYCQQMHSYPTFGGGTKVEIK
notes: IgG1 kappa
B2: SA301a LC-Y91P (antibody, name in Kabat numbering, V domains shown)
VH: B1 VH
VL: B1 VL with M90P
notes: IgG1 kappa
B3: SA301a LC-Y91Q (antibody, name in Kabat numbering, V domains shown)
VH: B1 VH
VL: B1 VL with M90Q
notes: IgG1 kappa
B4: SA301a LC-Y91R (antibody, name in Kabat numbering, V domains shown)
VH: B1 VH
VL: B1 VL with M90R
notes: IgG1 kappa
B5: SA301a LC-Y91S (antibody, name in Kabat numbering, V domains shown)
VH: B1 VH
VL: B1 VL with M90S
notes: IgG1 kappa
B6: SA301a LC-Y91T (antibody, name in Kabat numbering, V domains shown)
VH: B1 VH
VL: B1 VL with M90T
notes: IgG1 kappa
B7: SA301a LC-Y91V (antibody, name in Kabat numbering, V domains shown)
VH: B1 VH
VL: B1 VL with M90V
notes: IgG1 kappa
B8: SA301a LC-Q89S (antibody, V domains shown)
VH: B1 VH
VL: B1 VL with Q88S, M90Y
B9: SA301a LC-Q89G (antibody, V domains shown)
VH: B1 VH
VL: B1 VL with Q88G, M90Y
B10: SA301a LC-Q89Y (antibody, V domains shown)
VH: B1 VH
VL: B1 VL with Q88Y, M90Y
B11: SA301a LC-Q89V (antibody, V domains shown)
VH: B1 VH
VL: B1 VL with Q88V, M90Y
B12: SA301a LC-Q89N (antibody, V domains shown)
VH: B1 VH
VL: B1 VL with Q88N, M90Y
B13: SA301a LC-Q89F (antibody, V domains shown)
VH: B1 VH
VL: B1 VL with Q88F, M90Y
B14: SA301a LC-Q89D (antibody, V domains shown)
VH: B1 VH
VL: B1 VL with Q88D, M90Y
B15: SA301a LC-Q89K (antibody, V domains shown)
VH: B1 VH
VL: B1 VL with Q88K, M90Y
B16: SA301a LC-Q89M (antibody, V domains shown)
VH: B1 VH
VL: B1 VL with Q88M, M90Y
B17: SA301a LC-Q89A (antibody, V domains shown)
VH: B1 VH
VL: B1 VL with Q88A, M90Y
B18: SA301a LC-Q89E (antibody, V domains shown)
VH: B1 VH
VL: B1 VL with Q88E, M90Y
B19: SA301a LC-Q89L (antibody, V domains shown)
VH: B1 VH
VL: B1 VL with Q88L, M90Y
B20: SA301a LC-H92Y (antibody, V domains shown)
VH: B1 VH
VL: B1 VL with M90Y, H91Y
B21: SA301a LC-H92F (antibody, V domains shown)
VH: B1 VH
VL: B1 VL with M90Y, H91F
B22: SA301a LC-H92V (antibody, V domains shown)
VH: B1 VH
VL: B1 VL with M90Y, H91V
B23: SA301a LC-H92A (antibody, V domains shown)
VH: B1 VH
VL: B1 VL with M90Y, H91A
B24: SA301a LC-H92E (antibody, V domains shown)
VH: B1 VH
VL: B1 VL with M90Y, H91E
B25: SA301a LC-H92T (antibody, V domains shown)
VH: B1 VH
VL: B1 VL with M90Y, H91T
B26: SA301a LC-S93V (antibody, V domains shown)
VH: B1 VH
VL: B1 VL with M90Y, S92V
B27: SA301a LC-S93Y (antibody, V domains shown)
VH: B1 VH
VL: B1 VL with M90Y, S92Y
B28: SA301a LC-S93G (antibody, V domains shown)
VH: B1 VH
VL: B1 VL with M90Y, S92G
B29: SA301a LC-S93D (antibody, V domains shown)
VH: B1 VH
VL: B1 VL with M90Y, S92D
B30: SA301a LC-S93I (antibody, V domains shown)
VH: B1 VH
VL: B1 VL with M90Y, S92I
B31: SA301a LC-S93F (antibody, V domains shown)
VH: B1 VH
VL: B1 VL with M90Y, S92F
B32: SA301a LC-S93M (antibody, V domains shown)
VH: B1 VH
VL: B1 VL with M90Y, S92M
B33: SA301a LC-S93P (antibody, V domains shown)
VH: B1 VH
VL: B1 VL with M90Y, S92P
B34: SA301a LC-S93Q (antibody, V domains shown)
VH: B1 VH
VL: B1 VL with M90Y, S92Q
B35: SA301a LC-S93A (antibody, V domains shown)
VH: B1 VH
VL: B1 VL with M90Y, S92A
B36: SA301a LC-S93L (antibody, V domains shown)
VH: B1 VH
VL: B1 VL with M90Y, S92L
B37: SA301a LC-S93K (antibody, V domains shown)
VH: B1 VH
VL: B1 VL with M90Y, S92K
B38: SA301a LC-Y94S (antibody, V domains shown)
VH: B1 VH
VL: B1 VL with M90Y, Y93S
B39: SA301a LC-Y94R (antibody, V domains shown)
VH: B1 VH
VL: B1 VL with M90Y, Y93R
B40: SA301a LC-Y94F (antibody, V domains shown)
VH: B1 VH
VL: B1 VL with M90Y, Y93F
B41: SA301a LC-Y94N (antibody, V domains shown)
VH: B1 VH
VL: B1 VL with M90Y, Y93N
B42: SA301a LC-Y94G (antibody, V domains shown)
VH: B1 VH
VL: B1 VL with M90Y, Y93G
B43: SA301a LC-Y94L (antibody, V domains shown)
VH: B1 VH
VL: B1 VL with M90Y, Y93L
B44: SA301a LC-Y94I (antibody, V domains shown)
VH: B1 VH
VL: B1 VL with M90Y, Y93I
B45: SA301a LC-Y94A (antibody, V domains shown)
VH: B1 VH
VL: B1 VL with M90Y, Y93A
B46: SA301a LC-Y94M (antibody, V domains shown)
VH: B1 VH
VL: B1 VL with M90Y, Y93M
B47: SA301a LC-Y94V (antibody, V domains shown)
VH: B1 VH
VL: B1 VL with M90Y, Y93V

Target: T1, human IL-18BP
Assay: BLI, apparent KD

Binder | Kd [nM]
B1 | 0.22
B2 | 0.24
B3 | 0.24
B4 | 0.18
B5 | 0.33
B6 | 0.45
B7 | 1.85
B8 | 0.28
B9 | 0.32
B10 | 0.35
B11 | 0.51
B12 | 0.28
B13 | 0.4
B14 | 0.02
B15 | 0.97
B16 | 0.49
B17 | 0.39
B18 | 0.46
B19 | 0.85
B20 | 0.1
B21 | 0.7
B22 | 0.2
B23 | 0.95
B24 | 0.36

Binder | Kd [nM]
B25 | 0.15
B26 | 0.19
B27 | 0.19
B28 | 0.08
B29 | 0.23
B30 | 0.21
B31 | 0.15
B32 | 0.14
B33 | 0.41
B34 | 0.24
B35 | 0.52
B36 | 0.23
B37 | 0.16
B38 | 0.63
B39 | 0.29
B40 | 0.13
B41 | 0.22
B42 | 0.12
B43 | 0.16
B44 | 1.27
B45 | 1.15
B46 | 1.93
B47 | 2.35
